Assay: yeast display, Sf9 membrane polyspecificity reagent, FACS + sequencing; frameworks hold sequencing errors
Summary of the method: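 Genes from sorted yeast were amplified by colony PCR, read by MiSeq 2 × 250 sequencing and filtered on CDR length. These cells carried a synthetic nanobody library in Saccharomyces cerevisiae BJ5465 and were sorted by FACS into low and high (top ~1%) gates on anti-HA and streptavidin fluorescence. Polyreactivity is labelled according to the gate of origin.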

Question: With “QVQLVESGGGLVQAGGSLRLSCAASGSIIDYNAMGWYRQAPGKERELVAAIDWSGSSTYYADSVKGRFTISRDNAKNTVYLQMNSLKPEDTAVYYCNALAYYGMDYWGQGTQVTVSS” as the sequence, how does the “polyreactivity (PSR sort gate)” value read?
Answer: low polyreactivity

Question: With “QVQLVESGGGLVQAGGSLRLSCAASGSIIFAYAMGWYRQAPGKERELVAAITTGVSTNYADSVKGRFTISRDNAKNTVYLQMNSLKPEDTAVYYCNADVDYGFDAGVAVQVVIHDYWGQGTQVTVSS” as the sequence, how does the “polyreactivity (PSR sort gate)” value read?
Answer: low polyreactivity

Question: Which “polyreactivity (PSR sort gate)” value does the source give for “QVQLVESGGGLVQAGGSLRLSCAASGSIIFTNTMGWYRQAPGKERELVAAITSGGSTYYADSVKGRFTISRDNAKNTVYLQMNSLKPEDTAVYYCAAAISYYGKYYRLDYWGQGTQVTVSS” here?
Answer: low polyreactivity

Question: Which “polyreactivity (PSR sort gate)” value does the source give for “QVQLVESGGGLVQAGGSLRLSCAASGSIIFVYAMGCYRQAPGKERELVAGINSSGTSTYADSVKGRFTISRDNAKNTVYLQMNSLKPEDTAVYYCAARWFYYRWAYDYWGQGTQVTVSS” here?
Answer: low polyreactivity

Question: With “QVQLVESGGGLVQAGGSLRLSCAASGSIIGIYAMGWYRQAPGKEREMVAAINRGGSTYYADSVKGRFTISRDNAKNTVYLQMNSLKPEDTAVYYCSASPPYNTEFDYWGQGTQVTVSS” as the sequence, how does the “polyreactivity (PSR sort gate)” value read?
Answer: low polyreactivity

Question: Which “polyreactivity (PSR sort gate)” value does the source give for “QVQLVESGGGLVQAGGSLRLSCAASGSIIGTYAMGWYRQAPGKERELVAAISSSGGRTYYADSVKGRFTISRDNAKNTVYLQMNILKTEYTAVYYCNTRPGTVFRAGGDYWGQGTQVTVSS” here?
Answer: high polyreactivity

Question: For “QVQLVESGGGLVQAGGSLRLSCAASGSIIGVNAMGWYRQAPGKERELVAAMSSTGGSTYYADSVKGRFSISRDNAKNTVFLQMNRLKPEDTAVYYCHTDYSKSIGDGYAGFDYWGQGTQVTVSS”, which “polyreactivity (PSR sort gate)” value is on record?
Answer: low polyreactivity

Question: With “QVQLVESGGGLVQAGGSLRLSCAASGSIIHFYAMGWYRQAPGKERELVAAITSGTSTYYADSVKGRFTISRDNAKNTVYLQMNSLKPEDTAVYYCAAEASHYYYNAYPSYGGSDYWGQGTQVNVSS” as the sequence, how does the “polyreactivity (PSR sort gate)” value read?
Answer: low polyreactivity

Question: For “QVQLVESGGGLVQAGGSLRLSCAASGSIIILYAMGWYRQAPGKERELVAAISLRGGRTYYADSVKGRFTISRDNAKNTVYLQMNSLKPEVTSVYYCATPVTNGFDYWGQGTQVTVSS”, which “polyreactivity (PSR sort gate)” value is on record?
Answer: high polyreactivity

Question: With “QVQLVESGGGLVQAGGSLRLSCAASGSIIKRNAKGWYRQAPGKERELVASISSGGSTKYADSVKGRFTISRDNAKNTVYLQMNSLKPEDTAVYYCAKRSSQTRRAYDYWGQGTQVTVSS” as the sequence, how does the “polyreactivity (PSR sort gate)” value read?
Answer: low polyreactivity

Question: With “QVQLVESGGGLVQAGGSLRLSCAASGSIINIYAMGWYRQAPGKERELVATITGIADSTYYADSVKGRFTISRDNAQNSVYLQMNSLKPEETAVYFCAADKYVAEYDYWGQGSQVTVSS” as the sequence, how does the “polyreactivity (PSR sort gate)” value read?
Answer: low polyreactivity

Question: For “QVQLVESGGGLVQAGGSLRLSCAASGSIIPLYAMGWYRQAPGKERELVAAISRRGGSTYYADSVKGRFTISRDNAKNTVYLQMNSLKPEDTAVYYCSVDSPSPSRGPRFYYWGQGTQVTVSS”, which “polyreactivity (PSR sort gate)” value is on record?
Answer: high polyreactivity

Question: With “QVQLVESGGGLVQAGGSLRLSCAASGSIIRRYAMGWYRQAPGKERELVAAISSGGSTYYADSVKGRFTISRDNAKNTVYLEMNSLKPVDTAVYYCAAAQRVSWLFGYWGQGTQVTVSS” as the sequence, how does the “polyreactivity (PSR sort gate)” value read?
Answer: high polyreactivity

Question: With “QVQLVESGGGLVQAGGSLRLSCAASGSIISAYVMGWYRQAPGKERELVAAITRSGGSTYYADSVKGRFTISRDNAKNTVYLQMNSLTPEDTAVYYCAAKSIIRPYAPRRDDMDYWGQGTQVTVSS” as the sequence, how does the “polyreactivity (PSR sort gate)” value read?
Answer: low polyreactivity

Question: Which “polyreactivity (PSR sort gate)” value does the source give for “QVQLVESGGGLVQAGGSLRLSCAASGSIISGYAMGLDRQARGKERDLVAAISSGGRTKYADSVKGRFTISRDNAKNTVYLQMNSLKPEDTAVYYCNVSYLVYRWIFGWSLDYWGQGTQVTVSS” here?
Answer: low polyreactivity

Question: For “QVQLVESGGGLVQAGGSLRLSCAASGSIISSNAMGWYRQAPGKEREMVAAITWSGGSTYYADSVKGRFTNSRDNAKNTVYLQMNSLKPEDTAVYYCAADQWRYDGSFTGYGYWGQGTQVTVSS”, which “polyreactivity (PSR sort gate)” value is on record?
Answer: low polyreactivity

Question: Which “polyreactivity (PSR sort gate)” value does the source give for “QVQLVESGGGLVQAGGSLRLSCAASGSIITHNTMGWYRQAPGKERELVDSIDSGASTNYADSVKGGFTISRDNAKNTVYLQMNSVKPEDTAVYYCAADVAKFRYRDDYWGQGTQVTVAS” here?
Answer: low polyreactivity

Question: Which “polyreactivity (PSR sort gate)” value does the source give for “QVQLVESGGGLVQAGGSLRLSCAASGSIITWNAMGWYRQAPGKERELVAALDWDGGSTYYADSVKGRFTISRDNAKNTVYFQMNRLKPEDTAVYYCAATYGWYTGRYPSGHYYYWGQGTQVTVSS” here?
Answer: low polyreactivity

Question: Which “polyreactivity (PSR sort gate)” value does the source give for “QVQLVESGGGLVQAGGSLRLSCAASGSIIVRYAMGWYRQAPGKERELVAAISWSGGRTYYADSVKGRFTISRDNAKNTVYLQMNSLKPEDTAVYYCAADSSVRYRDTEDYWGQGTQVTVSS” here?
Answer: low polyreactivity

Question: With “QVQLVESGGGLVQAGGSLRLSCAASGSIIVRYAMGWYRQAPGKERELVAAISWSGGRTYYADSVKGRFTISRDNAKNTVYLQMNSLKPEDTAVYYCAKRQGGRKYVRYEYDSWGQGTQVTVSS” as the sequence, how does the “polyreactivity (PSR sort gate)” value read?
Answer: low polyreactivity

Question: For “QVQLVESGGGLVQAGGSLRLSCAASGSIIVYNTMGWYRQAPGKERELVAAITVRDDSTYYADSVKGRFTISRDYAKNTVYLQMNSLNPEDTAVYYCNARGYFLIGRDYWGQGTQVTVSS”, which “polyreactivity (PSR sort gate)” value is on record?
Answer: low polyreactivity

Question: With “QVQLVESGGGLVQAGGSLRLSCAASGSIIWLYAMGWYRQAPGKERELVAAISSGGSTYYADSVKGRFTISRDNAKNTVYLQMNSLKPEDTAVYYCAATYSSFRRYPGAHYRFGYWGQGSQVTVSS” as the sequence, how does the “polyreactivity (PSR sort gate)” value read?
Answer: high polyreactivity

Question: For “QVQLVESGGGLVQAGGSLRLSCAASGSIIWRNTMGWYRQAPGKESELVARITGRGGRTNYADSVKGRFTISRDNAKNTVYLQMNSLKPEDTAVYYCAAAYPSVAYSYRYDYWGQGTQVTVSS”, which “polyreactivity (PSR sort gate)” value is on record?
Answer: high polyreactivity

Question: Which “polyreactivity (PSR sort gate)” value does the source give for “QVQLVESGGGLVQAGGSLRLSCAASGSIIWYYAMVWYRQAPGIERELGAAMTGTGGNTYYADSVKGRFTLSRDNAKNTVYLQMNSLKPEDTAVYYCDVRAYPSYPRGVYAYYYWGHGTQVTVSS” here?
Answer: high polyreactivity

Question: With “QVQLVESGGGLVQAGGSLRLSCAASGSIIYANAMGWYRQAPGKEREFVATITDSGAITYYADSVKGRFTISRDNAKNTVYLQMISLKPEDTAVYYCNKDLVVYSVPTHDYDYWGQGTQVTVSS” as the sequence, how does the “polyreactivity (PSR sort gate)” value read?
Answer: low polyreactivity

Question: Which “polyreactivity (PSR sort gate)” value does the source give for “QVQLVESGGGLVQAGGSLRLSCAASGSIIYAYAMGWYRQAPGKERELVAGIRDGGSTYYADSVKCRFTISRDNAKNTVYLQMNSLKPEDTAVYYCAAGPRIRDDYWGQGTQVTVSS” here?
Answer: low polyreactivity

Question: Which “polyreactivity (PSR sort gate)” value does the source give for “QVQLVESGGGLVQAGGSLRLSCAASGSIIYGYAMGWYRQAPGKERELVASISSGGSTNYADSVKGRFTISRDNAKNTVYLQMNSLKPEDTAVYYCAAYFQRSGFSFRLRGQGTQVTVSS” here?
Answer: high polyreactivity

Question: With “QVQLVESGGGLVQAGGSLRLSCAASGSIIYRNAMGWYRQAPGKERELDAAISYSGTSTNYADSVKGRFTISRDNAKNTVYLQMNSLKPEDTAVYYCAARGFPHRRHSLYDYWGQGTHVTVSS” as the sequence, how does the “polyreactivity (PSR sort gate)” value read?
Answer: low polyreactivity

Question: Which “polyreactivity (PSR sort gate)” value does the source give for “QVQLVESGGGLVQAGGSLRLSCAASGSILAAYAKGWYRQAPGKERELVAAISLDDGSTYYADSVKGRFTISRDNAKNTVYFQMNSLKPVDTAVYYCAADYYVRSQLLYATSGNYWGQGTQVTVTS” here?
Answer: high polyreactivity

Question: Which “polyreactivity (PSR sort gate)” value does the source give for “QVQLVESGGGLVQAGGSLRLSCAASGSILAGYAMGWYRQAPGKERELVAAITGGYVRSYYADSVKGRFTISRDNAKNTDYLQMNSLKPEDTAVYYCAATWGSVQKGTYYYWGQGTQVTVSS” here?
Answer: low polyreactivity

Question: For “QVQLVESGGGLVQAGGSLRLSCAASGSILAINAMGWYRQAPGKERELVAAINWSRGSTFYADSVKGRFTISRDNAKNTVYLQMNSLKPEDTAVYYCNVEWTDSERGDYYVDYDYWGQGTQVTVSS”, which “polyreactivity (PSR sort gate)” value is on record?
Answer: low polyreactivity

Question: With “QVQLVESGGGLVQAGGSLRLSCAASGSILARYAMGWYRQAPGKERELVAAISYNGGSTYYADSVKGRFTISRDNAKNTVYLQMNSRKPEDTAVYYCAKAYDTTLTYNYWGQGTQVTVSS” as the sequence, how does the “polyreactivity (PSR sort gate)” value read?
Answer: low polyreactivity

Question: Which “polyreactivity (PSR sort gate)” value does the source give for “QVQLVESGGGLVQAGGSLRLSCAASGSILASYAMGWYRQAPGKERELVAAINRGGRTKYADSVKGRFTISRDNAKNTVYLQMNSLKPEDTAVYYCAKSDSQYEGDGYWGQGTQVTVSS” here?
Answer: high polyreactivity

Question: Which “polyreactivity (PSR sort gate)” value does the source give for “QVQLVESGGGLVQAGGSLRLSCAASGSILDGNAMGWYRQAPGKERELVAAITRSGGRTYYADSVKGRFTISRDNAKNTVYLQMNSLKPEDTAVYYCNVDVPGVRFEYWGQGTQVTVSS” here?
Answer: low polyreactivity

Question: For “QVQLVESGGGLVQAGGSLRLSCAASGSILDIYAMGWSRQAPGKERELVAGISTSGGSTYYADSVKGRFTISRDNAKNTVYLQMNSLKPEDTAVYYCAKDYGYQGHTRTLYWAYLEYDYWGQGTQVTVSS”, which “polyreactivity (PSR sort gate)” value is on record?
Answer: low polyreactivity

Question: With “QVQLVESGGGLVQAGGSLRLSCAASGSILDIYAMGWSRQAPGKERELVAGMSTTGGSTYYADSVKGRFTISRDNAKNTVYLQMNSLKPEDTAVYYCAKDYGYQGHTRTLYWAYLEYDYWGQGTQVTVSS” as the sequence, how does the “polyreactivity (PSR sort gate)” value read?
Answer: low polyreactivity

Question: Which “polyreactivity (PSR sort gate)” value does the source give for “QVQLVESGGGLVQAGGSLRLSCAASGSILDIYAMGWYRQAPGKERELVASISWGGGSTYYADSVKGRFTISRDNAKNTVYLQMNSLKQEDTAVYYCNAVYDLYHYWKFYYWGQGTQVTVSS” here?
Answer: low polyreactivity

Question: Which “polyreactivity (PSR sort gate)” value does the source give for “QVQLVESGGGLVQAGGSLRLSCAASGSILDRNAMGWYRQAPGKERELVAAISRSRGSTYYADSVKGRFTISRDNAKNTVYLQMNSLKPEDTAVYYCNAYYPFYTLIYGGPVRYYNFDYWGQGPQVTVSS” here?
Answer: high polyreactivity

Question: With “QVQLVESGGGLVQAGGSLRLSCAASGSILDSNAMGWYRQAPGQERELVAAISRSGVSTHYADSVKGRFSISRDNAKNTVYLQMNSLKPEDTAVYYCARTGQSLYSRYYYWGQGTQVTVSS” as the sequence, how does the “polyreactivity (PSR sort gate)” value read?
Answer: low polyreactivity

Question: For “QVQLVESGGGLVQAGGSLRLSCAASGSILEIYAMGWYRQAPGKESEFVASISWDVSSTYYADSVKGRFTISRDNAKNTVYLQMNSLKPEDTAVYYCATSLVWGLYDWYYDLSAAFDYWGQGTQVTVSS”, which “polyreactivity (PSR sort gate)” value is on record?
Answer: low polyreactivity

From the nanobody polyreactivity screen of Harvey et al. (2022)
